Source: article PMC11272775, “Epigenetic memory is governed by an effector recruitment specificity toggle in Heterochromatin Protein 1” (Nature Communications, 2024)
Numbering of substitutions follows the chain as printed. In names and notes the source's numbering stands.

T1: MBP-Epe1 (S. pombe, UniProt O94603 1-948)
T1 construct: Epe1, S. pombe, full-length; also called MBP-His-TEV-Epe1; recombinant MBP-Epe1 fusion protein; source: Hi5 cells infected with baculovirus, purified (amylose resin, Superdex 200); not shown: MBP, N-terminal, kept
T1 sequence (looked up): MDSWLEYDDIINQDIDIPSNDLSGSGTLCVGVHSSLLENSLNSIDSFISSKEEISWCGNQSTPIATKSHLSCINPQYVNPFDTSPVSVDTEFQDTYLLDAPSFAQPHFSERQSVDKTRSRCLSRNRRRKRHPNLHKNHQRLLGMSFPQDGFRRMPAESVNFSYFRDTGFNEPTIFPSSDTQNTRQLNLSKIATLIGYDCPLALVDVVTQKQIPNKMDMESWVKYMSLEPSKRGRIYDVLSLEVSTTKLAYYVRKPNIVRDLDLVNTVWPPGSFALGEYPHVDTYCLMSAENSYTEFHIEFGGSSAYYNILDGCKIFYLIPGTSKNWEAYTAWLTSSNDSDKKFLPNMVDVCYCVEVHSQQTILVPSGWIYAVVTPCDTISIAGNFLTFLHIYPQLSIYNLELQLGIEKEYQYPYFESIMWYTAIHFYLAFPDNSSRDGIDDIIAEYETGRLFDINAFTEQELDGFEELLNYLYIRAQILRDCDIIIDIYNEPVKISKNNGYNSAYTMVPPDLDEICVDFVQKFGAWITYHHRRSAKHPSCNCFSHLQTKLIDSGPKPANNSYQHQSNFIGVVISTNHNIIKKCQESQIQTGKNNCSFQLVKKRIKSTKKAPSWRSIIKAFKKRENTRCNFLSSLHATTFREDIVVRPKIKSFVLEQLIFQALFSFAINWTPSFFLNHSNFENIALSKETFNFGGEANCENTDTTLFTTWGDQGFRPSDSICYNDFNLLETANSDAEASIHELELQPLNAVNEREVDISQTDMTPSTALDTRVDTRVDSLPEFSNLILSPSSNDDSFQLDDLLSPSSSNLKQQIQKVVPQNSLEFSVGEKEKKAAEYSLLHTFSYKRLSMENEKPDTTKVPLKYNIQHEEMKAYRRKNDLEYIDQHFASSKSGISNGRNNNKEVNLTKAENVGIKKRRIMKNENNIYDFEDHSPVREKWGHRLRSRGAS

B1: Swi6-WT (recombinant, full-length) (natural protein, S. pombe, UniProt P40381 1-328, looked up)
chain: MKKGGVRSYRRSSTSKRSVIDDDSEPELPSMTKEAIASHKADSGSSDNEVESDHESKSSSKKLKENAKEEEGGEEEEEDEYVVEKVLKHRMARKGGGYEYLLKWEGYDDPSDNTWSSEADCSGCKQLIEAYWNEHGGRPEPSKRKRTARPKKPEAKEPSPKSRKTDEDKHDKDSNEKIEDVNEKTIKFADKSQEEFNENGPPSGQPNGHIESDNESKSPSQKESNESEDIQIAETPSNVTPKKKPSPEVPKLPDNRELTVKQVENYDSWEDLVSSIDTIERKDDGTLEIYLTWKNGAISHHPSTITNKKCPQKMLQFYESHLTFRENE
notes: Swi6, HP1 homolog of S. pombe; MW 37,292.6 g/mol; source: E. coli BL21(DE3)-RIPL, purified (Ni-NTA, anion exchange, SEC); not shown: 6XHis, N-terminal, cleaved
B2: 3X FLAG-Swi6-WT (recombinant) (natural protein, S. pombe, UniProt P40381 1-328, looked up)
chain: B1 chain
notes: Swi6, HP1 homolog of S. pombe; source: E. coli BL21(DE3)-RIPL, purified (recombinant); not shown: 6XHis, N-terminal, cleaved
B3: Swi6-T278K (recombinant, full-length) (natural protein, S. pombe, UniProt P40381 1-328, looked up)
chain: B1 chain with T278K
notes: Swi6, HP1 homolog of S. pombe, with T278K; MW 37,319.7 g/mol; also called Swi6-K; source: E. coli BL21(DE3)-RIPL, purified (Ni-NTA, anion exchange, SEC); not shown: 6XHis, N-terminal, cleaved
B4: Swi6-T278Y (recombinant, full-length) (natural protein, S. pombe, UniProt P40381 1-328, looked up)
chain: B1 chain with T278Y
notes: Swi6, HP1 homolog of S. pombe, with T278Y; MW 37,354.7 g/mol; also called Swi6-Y; source: E. coli BL21(DE3)-RIPL, purified (Ni-NTA, anion exchange, SEC); not shown: 6XHis, N-terminal, cleaved

Tests used:
[1] = system: Swi6-WT (Schizosaccharomyces pombe); assay: EMSA; conditions: 20 mM Hepes pH 7.5, 4 mM Tris, 80 mM KCl, 0.1% Igepal CA-630, 0.2 mM EDTA, 2 mM DTT, 10% glycerol, 10 nM mononucleosome, 30 °C 45 min, 6% acrylamide 0.5x TBE …
H3K9me3 mononucleosomes = assay: native gel or EMSA; Swi6 varied, 10 nM mononucleosomes; 20 mM Hepes pH 7.5, 4 mM tris, 80 mM KCl, 0.1% Igepal CA-630, 0.2 mM EDTA, 2 mM DTT, 10% glycerol; 30 °C for 45 min; unbound nucleosome band quantified; apparent K1/2
[2] = target: the molecule itself; assay: mass photometry; full-length recombinant Swi6 at 2.5-20 nM in 20 mM HEPES pH 7.5, 100 mM KCl; apparent dimerization constants (Kdim) from the relative abundance of monomer and dimer; dimer to monomers
MBP-Epe1 = target: T1, MBP-Epe1; assay: pull-down; recombinant 3X FLAG-Swi6 immobilised on FLAG M2 beads, three concentrations of recombinant MBP-Epe1; 20 mM HEPES pH 7.5, 150 mM NaCl, 5 mM MgCl2, 10% glycerol, 0.25% Triton X-100, 1 mM DTT; 2 h at 4 °C; blots with anti-MBP and M2 Flag antibodies; conditions: both partners purified

| Molecule | apparent K1/2 (H3K9me3 mononucleosomes) [nM] | specificity for H3K9me3 over H3K9me0 mononucleosomes (H3K9me3 mononucleosomes) [fold] | Kd [2] [nM] | stoichiometry N [2] | other results |
| --- | --- | --- | --- | --- | --- |
| H3K9me0 mononucleosome | – | – | – | – | binding signal (fold weaker than H3K9me3) ([1]; H3K9me0 histone, unmodified H3 (H3K9me0)): 2.4 |
| H3K9me3 mononucleosome | – | – | – | – | K half ([1]; H3K9me3 histone, histone H3K9me3 (DNA unmodified)): 50 nM |
| B1 | 50 | 2.4 | 0.38 | 2 | – |
| B2 | – | – | – | – | binding result (MBP-Epe1): binds |
| B3 | – | – | 0.2 | 2 | – |
| B4 | 39 | 2.3 | 0.27 | 2 | – |
